From patent US20050119464

How the values were obtained:
[1] = target: the different subclasses of IgG
fibrinogen, P02671 = target: T1, fibrinogen, P02671
T1 chain 1: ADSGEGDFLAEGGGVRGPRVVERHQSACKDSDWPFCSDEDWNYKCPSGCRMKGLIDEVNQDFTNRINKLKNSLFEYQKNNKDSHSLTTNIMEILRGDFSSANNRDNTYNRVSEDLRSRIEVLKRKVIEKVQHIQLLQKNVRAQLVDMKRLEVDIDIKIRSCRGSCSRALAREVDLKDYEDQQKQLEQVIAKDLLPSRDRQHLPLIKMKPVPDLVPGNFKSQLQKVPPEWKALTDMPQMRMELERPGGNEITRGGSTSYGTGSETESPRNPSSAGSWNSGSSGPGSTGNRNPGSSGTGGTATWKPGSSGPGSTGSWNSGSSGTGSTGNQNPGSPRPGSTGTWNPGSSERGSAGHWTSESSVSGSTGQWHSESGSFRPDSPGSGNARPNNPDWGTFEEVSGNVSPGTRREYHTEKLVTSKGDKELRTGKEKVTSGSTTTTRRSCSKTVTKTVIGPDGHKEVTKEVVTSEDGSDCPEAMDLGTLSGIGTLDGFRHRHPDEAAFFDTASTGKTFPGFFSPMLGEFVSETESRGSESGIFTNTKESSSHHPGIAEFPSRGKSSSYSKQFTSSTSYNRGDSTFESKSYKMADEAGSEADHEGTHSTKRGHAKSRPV
T1 chain 2: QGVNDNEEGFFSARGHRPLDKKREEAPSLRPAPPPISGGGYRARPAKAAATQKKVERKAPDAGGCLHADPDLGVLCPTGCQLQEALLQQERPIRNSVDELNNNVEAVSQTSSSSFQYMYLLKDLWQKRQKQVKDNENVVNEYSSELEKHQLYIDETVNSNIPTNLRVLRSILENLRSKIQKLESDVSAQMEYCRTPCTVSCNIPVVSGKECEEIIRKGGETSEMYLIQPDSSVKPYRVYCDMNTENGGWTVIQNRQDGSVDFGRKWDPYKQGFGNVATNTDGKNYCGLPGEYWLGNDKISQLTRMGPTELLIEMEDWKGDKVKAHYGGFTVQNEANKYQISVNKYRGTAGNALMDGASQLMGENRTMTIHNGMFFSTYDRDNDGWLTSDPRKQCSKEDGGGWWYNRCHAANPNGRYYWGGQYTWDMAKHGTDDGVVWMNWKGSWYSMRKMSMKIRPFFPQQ
T1 chain 3: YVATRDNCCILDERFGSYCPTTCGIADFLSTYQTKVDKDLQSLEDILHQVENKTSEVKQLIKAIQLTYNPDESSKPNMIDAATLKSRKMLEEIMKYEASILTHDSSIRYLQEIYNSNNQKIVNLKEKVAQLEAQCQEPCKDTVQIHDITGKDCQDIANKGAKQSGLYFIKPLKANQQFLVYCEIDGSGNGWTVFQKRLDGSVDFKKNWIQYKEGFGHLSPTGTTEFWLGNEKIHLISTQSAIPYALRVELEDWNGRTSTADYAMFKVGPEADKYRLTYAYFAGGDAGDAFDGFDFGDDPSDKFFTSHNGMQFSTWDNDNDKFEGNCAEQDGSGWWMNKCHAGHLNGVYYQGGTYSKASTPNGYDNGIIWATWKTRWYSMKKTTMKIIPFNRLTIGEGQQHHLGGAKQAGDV

Z-LVG-CHN2 = target: T2, Z-LVG-CHN2
T2 chain: LVG

cystatin C, P01034 = target: T3, cystatin C, P01034
T3 chain: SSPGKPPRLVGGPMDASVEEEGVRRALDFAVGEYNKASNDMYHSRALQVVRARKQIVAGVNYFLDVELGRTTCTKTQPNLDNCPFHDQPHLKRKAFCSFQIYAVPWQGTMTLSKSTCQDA

[2] = target: T4, cystatin C from rat, P14841
T4 chain: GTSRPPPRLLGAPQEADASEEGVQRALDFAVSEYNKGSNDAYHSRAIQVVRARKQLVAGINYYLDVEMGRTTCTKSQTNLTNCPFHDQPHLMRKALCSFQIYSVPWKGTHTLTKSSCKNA

[3] = target: T5, antimicrobial peptide LL-37, P49913
T5 chain: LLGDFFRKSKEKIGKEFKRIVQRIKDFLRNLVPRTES

[4] = target: synthetic peptide homologous to amino acids 234 to 241 of human IgG
[5] = target: T6, cystatin C from chicken, P01038
T6 chain: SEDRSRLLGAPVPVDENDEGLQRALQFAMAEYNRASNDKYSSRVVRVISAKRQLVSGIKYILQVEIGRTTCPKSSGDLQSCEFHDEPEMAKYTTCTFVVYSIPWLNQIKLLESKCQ

[6] = target: Fc-fragment generated by papain cleavage, including 12 amino acids of the hinge region
cystatin D, P28325 = target: T7, cystatin D, P28325
T7 chain: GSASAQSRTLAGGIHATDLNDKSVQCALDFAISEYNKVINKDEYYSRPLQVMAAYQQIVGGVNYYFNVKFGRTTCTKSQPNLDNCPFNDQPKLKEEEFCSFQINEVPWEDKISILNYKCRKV

H-kininogen, P01042 = target: T8, H-kininogen, P01042
T8 chain: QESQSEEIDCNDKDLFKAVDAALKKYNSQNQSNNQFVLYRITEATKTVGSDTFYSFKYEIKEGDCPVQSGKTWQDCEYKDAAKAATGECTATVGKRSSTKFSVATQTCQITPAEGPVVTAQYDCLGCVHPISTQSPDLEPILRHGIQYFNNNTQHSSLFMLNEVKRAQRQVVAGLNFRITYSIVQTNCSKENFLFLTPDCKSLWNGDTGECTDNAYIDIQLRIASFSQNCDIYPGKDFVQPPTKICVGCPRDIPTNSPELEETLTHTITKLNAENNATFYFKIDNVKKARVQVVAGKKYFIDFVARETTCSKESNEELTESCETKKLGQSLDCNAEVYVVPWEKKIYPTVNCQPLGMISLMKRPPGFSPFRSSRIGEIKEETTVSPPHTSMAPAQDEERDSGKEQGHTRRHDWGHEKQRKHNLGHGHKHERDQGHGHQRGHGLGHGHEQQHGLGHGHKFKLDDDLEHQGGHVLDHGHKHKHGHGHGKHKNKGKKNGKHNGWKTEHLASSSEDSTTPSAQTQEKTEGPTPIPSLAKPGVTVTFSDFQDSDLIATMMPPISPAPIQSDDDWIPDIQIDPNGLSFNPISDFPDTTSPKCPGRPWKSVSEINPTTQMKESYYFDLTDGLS

[7] = target: T9, cystatin C from mouse, P21460
T9 chain: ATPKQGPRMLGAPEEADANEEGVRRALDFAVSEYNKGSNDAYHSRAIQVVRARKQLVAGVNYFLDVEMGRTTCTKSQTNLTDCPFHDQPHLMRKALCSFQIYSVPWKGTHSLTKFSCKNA

B1: IdeS (Immunoglobulin G-degrading enzyme of S. pyogenes), purified from culture supernatant of S. pyogenes strain AP1 (protein)
chain: DSFSANQEIRYSEVTPYHVTSVWTKGVTPPANFTQGEDVFHAPYVANQGWYDITKTFNGKDDLLCGAATAGNMLHWWFDQNKDQIKRYLEEHPEKQKINFNGEQMFDVKEAIDTKNHQLDSKLFEYFKEKAFPYLSTKHLGVFPDHVIDMFINGYRLSLTNHGPTPVKEGSKDPRGGIFDAVFTRGDQSKLLTSRHDFKEKNLKEISDLIKKELTEGKALGLSHTYANVRINHVINLWGADFDSNGNLKAIYVTDSDSNASIGMKKYFVGVNSAGKVAISAKEIKEDNIGAQVLGLFTLSTGQDSWNQTN
albumin, P02768
  cleavage products: No cleavage products could be detected
[1]
  IdeS digestion: all were susceptible for IdeS digestion
fibrinogen, P02671
  cleavage products: No cleavage products could be detected
transferrin, P02787
transferrin, P02787, sequence (P02787 20-698): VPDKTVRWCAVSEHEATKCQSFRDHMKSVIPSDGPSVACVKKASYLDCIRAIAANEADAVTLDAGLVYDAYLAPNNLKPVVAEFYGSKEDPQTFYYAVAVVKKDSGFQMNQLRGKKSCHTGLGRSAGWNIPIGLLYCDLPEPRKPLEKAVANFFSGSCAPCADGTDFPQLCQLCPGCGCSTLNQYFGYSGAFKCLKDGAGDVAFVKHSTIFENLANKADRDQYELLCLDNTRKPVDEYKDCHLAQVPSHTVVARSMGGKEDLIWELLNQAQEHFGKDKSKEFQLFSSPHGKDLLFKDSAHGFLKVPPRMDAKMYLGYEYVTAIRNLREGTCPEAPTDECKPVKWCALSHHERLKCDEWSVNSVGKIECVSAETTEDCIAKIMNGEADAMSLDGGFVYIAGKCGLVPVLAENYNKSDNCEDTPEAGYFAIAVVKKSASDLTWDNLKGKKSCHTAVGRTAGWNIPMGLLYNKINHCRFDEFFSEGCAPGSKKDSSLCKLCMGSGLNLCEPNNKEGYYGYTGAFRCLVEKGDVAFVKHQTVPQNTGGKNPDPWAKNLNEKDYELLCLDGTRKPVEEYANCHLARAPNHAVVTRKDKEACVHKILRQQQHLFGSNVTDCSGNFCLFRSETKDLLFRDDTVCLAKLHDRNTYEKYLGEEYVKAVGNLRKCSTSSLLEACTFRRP
  cleavage products: No cleavage products could be detected
Z-LVG-CHN2
  cleavage of the peptide: Neither was the synthetic peptide Z-LVG-CHN2, which inhibits IdeS activity, cleaved by excess IdeS
Cystatin C, P01034
  cleavage products: No cleavage products could be detected
laminin
  cleavage products: No cleavage products could be detected
[2]
  cleavage products: No cleavage products could be observed
[3]
  degradation of the peptide: did not reveal any degradation of the peptides
[4]
  degradation of the peptide: did not reveal any degradation of the peptides
[5]
  cleavage products: No cleavage products could be observed
[6]
  cleavage: a Fc-fragment generated by papain cleavage, including 12 amino acids of the hinge region is cleaved by IdeS
α 1-antitrypsin, P01009
α 1-antitrypsin, P01009, sequence (P01009 whole entry, looked up): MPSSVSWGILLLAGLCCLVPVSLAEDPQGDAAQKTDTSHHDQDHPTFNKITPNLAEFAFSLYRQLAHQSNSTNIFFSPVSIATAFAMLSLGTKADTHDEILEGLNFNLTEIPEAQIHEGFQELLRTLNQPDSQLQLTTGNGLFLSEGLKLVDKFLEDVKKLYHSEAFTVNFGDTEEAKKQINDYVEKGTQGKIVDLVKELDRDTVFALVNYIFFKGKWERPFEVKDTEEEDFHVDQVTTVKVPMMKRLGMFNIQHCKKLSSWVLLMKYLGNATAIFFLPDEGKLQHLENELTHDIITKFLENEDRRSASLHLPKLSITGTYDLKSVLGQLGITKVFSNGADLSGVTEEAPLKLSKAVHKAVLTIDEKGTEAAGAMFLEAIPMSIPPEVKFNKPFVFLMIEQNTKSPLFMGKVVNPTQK
  cleavage products: No cleavage products could be detected
Cystatin D, P28325
  cleavage products: No cleavage products could be detected
Whole human plasma
  cleavage products: No cleavage products could be detected
fibronectin, P02751
fibronectin, P02751, sequence (P02751 other isoform, or with tags, fused parts or gaps): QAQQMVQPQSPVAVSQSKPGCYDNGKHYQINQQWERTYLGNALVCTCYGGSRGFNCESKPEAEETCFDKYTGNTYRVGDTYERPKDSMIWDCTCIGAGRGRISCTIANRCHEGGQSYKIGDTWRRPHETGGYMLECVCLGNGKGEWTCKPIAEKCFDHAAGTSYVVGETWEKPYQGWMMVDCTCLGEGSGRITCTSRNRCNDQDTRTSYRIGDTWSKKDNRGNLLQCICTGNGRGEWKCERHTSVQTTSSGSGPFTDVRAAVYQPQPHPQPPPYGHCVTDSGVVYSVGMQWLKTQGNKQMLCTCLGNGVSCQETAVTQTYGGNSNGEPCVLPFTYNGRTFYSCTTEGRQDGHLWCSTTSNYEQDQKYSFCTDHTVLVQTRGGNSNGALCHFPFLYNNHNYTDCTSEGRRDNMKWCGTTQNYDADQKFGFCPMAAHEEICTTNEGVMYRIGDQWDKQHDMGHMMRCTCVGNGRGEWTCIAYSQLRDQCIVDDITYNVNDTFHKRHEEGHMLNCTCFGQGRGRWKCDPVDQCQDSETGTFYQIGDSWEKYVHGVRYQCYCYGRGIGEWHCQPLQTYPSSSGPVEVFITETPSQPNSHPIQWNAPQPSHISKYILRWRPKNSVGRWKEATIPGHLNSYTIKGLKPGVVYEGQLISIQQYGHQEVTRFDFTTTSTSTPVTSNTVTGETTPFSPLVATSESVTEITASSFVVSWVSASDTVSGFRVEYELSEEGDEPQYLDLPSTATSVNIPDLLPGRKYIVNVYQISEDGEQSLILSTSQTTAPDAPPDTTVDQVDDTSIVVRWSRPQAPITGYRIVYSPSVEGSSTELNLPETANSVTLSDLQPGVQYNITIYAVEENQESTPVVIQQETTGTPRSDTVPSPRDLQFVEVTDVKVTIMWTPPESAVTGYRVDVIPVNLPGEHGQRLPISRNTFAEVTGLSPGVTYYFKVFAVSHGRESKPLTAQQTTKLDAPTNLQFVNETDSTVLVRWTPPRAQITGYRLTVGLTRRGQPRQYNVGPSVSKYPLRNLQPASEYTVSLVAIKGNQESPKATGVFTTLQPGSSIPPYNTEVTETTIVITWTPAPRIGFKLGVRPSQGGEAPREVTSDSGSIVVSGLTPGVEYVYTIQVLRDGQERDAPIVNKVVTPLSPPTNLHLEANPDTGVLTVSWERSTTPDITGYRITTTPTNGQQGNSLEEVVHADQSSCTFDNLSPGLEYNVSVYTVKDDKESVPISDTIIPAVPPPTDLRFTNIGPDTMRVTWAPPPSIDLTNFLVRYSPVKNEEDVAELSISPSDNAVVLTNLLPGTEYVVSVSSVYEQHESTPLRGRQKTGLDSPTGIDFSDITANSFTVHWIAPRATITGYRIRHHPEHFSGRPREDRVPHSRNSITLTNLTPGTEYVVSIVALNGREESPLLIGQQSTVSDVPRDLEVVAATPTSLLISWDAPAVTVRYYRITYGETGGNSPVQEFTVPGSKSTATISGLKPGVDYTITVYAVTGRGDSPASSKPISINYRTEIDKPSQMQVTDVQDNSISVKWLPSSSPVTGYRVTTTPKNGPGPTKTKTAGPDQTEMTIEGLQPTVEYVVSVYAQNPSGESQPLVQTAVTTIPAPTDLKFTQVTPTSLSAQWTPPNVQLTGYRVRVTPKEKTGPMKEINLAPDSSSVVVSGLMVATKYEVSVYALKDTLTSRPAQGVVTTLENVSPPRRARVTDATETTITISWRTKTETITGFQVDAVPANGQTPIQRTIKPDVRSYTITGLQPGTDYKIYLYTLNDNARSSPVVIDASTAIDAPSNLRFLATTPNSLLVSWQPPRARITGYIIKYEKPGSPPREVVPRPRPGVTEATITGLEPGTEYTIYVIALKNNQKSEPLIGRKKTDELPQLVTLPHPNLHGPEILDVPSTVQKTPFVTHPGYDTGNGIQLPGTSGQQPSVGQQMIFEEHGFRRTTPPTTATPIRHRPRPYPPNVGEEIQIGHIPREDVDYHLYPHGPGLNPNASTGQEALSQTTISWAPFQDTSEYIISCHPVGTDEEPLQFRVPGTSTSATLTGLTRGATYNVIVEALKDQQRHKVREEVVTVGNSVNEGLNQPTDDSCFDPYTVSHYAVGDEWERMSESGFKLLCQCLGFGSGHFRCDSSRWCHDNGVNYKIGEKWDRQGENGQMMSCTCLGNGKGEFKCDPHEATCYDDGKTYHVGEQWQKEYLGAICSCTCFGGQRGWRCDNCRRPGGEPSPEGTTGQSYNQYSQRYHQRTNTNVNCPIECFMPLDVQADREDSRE
  cleavage products: No cleavage products could be detected
lactoferrin, P02788
lactoferrin, P02788, sequence (P02788 20-710): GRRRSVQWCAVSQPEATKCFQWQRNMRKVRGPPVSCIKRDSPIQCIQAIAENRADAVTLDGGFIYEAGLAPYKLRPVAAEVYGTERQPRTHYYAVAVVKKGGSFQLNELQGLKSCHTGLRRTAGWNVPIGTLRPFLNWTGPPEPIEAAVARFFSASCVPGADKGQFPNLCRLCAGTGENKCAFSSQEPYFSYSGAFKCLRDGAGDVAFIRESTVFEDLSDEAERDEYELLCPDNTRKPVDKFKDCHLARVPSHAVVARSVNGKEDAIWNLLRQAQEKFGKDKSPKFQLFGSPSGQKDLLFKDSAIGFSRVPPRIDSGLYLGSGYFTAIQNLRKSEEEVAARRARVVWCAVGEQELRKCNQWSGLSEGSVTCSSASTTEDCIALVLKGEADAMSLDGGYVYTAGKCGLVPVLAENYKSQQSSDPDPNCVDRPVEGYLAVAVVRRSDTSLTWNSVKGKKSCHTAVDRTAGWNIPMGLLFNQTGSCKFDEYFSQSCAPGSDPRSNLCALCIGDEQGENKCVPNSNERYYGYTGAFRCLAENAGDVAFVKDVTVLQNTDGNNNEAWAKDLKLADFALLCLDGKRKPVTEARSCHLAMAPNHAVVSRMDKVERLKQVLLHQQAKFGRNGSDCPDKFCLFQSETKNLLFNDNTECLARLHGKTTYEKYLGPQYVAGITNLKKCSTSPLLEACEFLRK
  cleavage products: No cleavage products could be detected
aprotinin, P00974
  cleavage products: No cleavage products could be detected
H-kininogen, P01042
  cleavage products: No cleavage products could be detected
[7]
  cleavage products: No cleavage products could be observed
